Test results: US20090304768A1, “Gastro-Retentive System for the Delivery of Macromolecules” (INTEC PHARMA LTD, priority 2006, published 2009)

Legend:
[1] = Stability of the peptide in 1% acid solution, incubation for 24 hr at 37° C.; assay type: physicochemical; settings: 1% acetic acid
Method: PTH 1-34 (molecular weight of 4117.8, UCB Bioproducts, USA) was received as a lyophilized powder. The peptide was made up in 1% acetic acid. The stability of the peptide in 1% acid solution was confirmed by incubating it for 24 hr at 37° C.

[2] = Stability assay of PTH 1-34 in various buffer solutions over 24 hr at 37° C.; assay type: physicochemical
Method: The stability of PTH 1-34 in various buffer solutions over 24 hr at 37° C. was evaluated to allow selection of a suitable buffer for in vitro release experiments. The lyophilized peptide (0.1 mg) was dissolved in each buffer solution that was tested. The concentration of PTH 1-34 in samples withdrawn from the solution at 0, 4, 8, and 24 hours were analyzed by HPLC (Gemini (Phenomenex) 5 μ C18, 250×4.6; mobile phase˜0.1% Trifluoroacetic acid/Acetonotrile:0.1% Trifluoroacetic acid/Water, gradient elution, 1 mL/min; 100 μL injection, UV PDA detection at 214).

## PTH 1-34: Parathyroid hormone fragment 1-34, molecular weight 4117.8, UCB Bioproducts, lyophilized powder
[1]
  stability of the peptide in 1% acid solution: confirmed
[2]; KCl/Cl buffer pH=2.2, over 24 hr
  stability at pH=2.2 over 24 hr: stable
[2]; buffer pH=1.2, 37° C.
  stability at pH=1.2: decreased stability
[2]; buffer pH>7, 37° C.
  stability at pH>7: decreased stability
[2]; various buffer solutions, 24 hr at 37° C.
  stability in various buffer solutions: stable over a wide range of pH values
